Laboratory results: the supplement of paper PMC11780869

Tested on: Bacillus subtilis
Assay: cleaved RNA product abundance (RNA/gDNA barcode ratio) relative to median wild-type variant (ratio to wild type); higher = more accumulation of the downstream cleavage product
Settings: experiment (reporter, strain, medium): exp 8a: truncated aprE reporter, strain BJT201 with 2% xylose (RNase J1 expressed); cleavage site: glnRA (positions -5 to +31 mutated)
Method in brief: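 Reporter mRNAs (truncated aprE or tetM) carrying barcoded, mutagenized RNase Y cleavage-site windows were made from oligos with a 9% error rate and integrated into the B. subtilis chromosome. Cultures grew in LB at 37°C from OD600 0.0003 to 0.3. Cleaved RNA was gel-selected, reverse transcribed and barcode-sequenced alongside genomic DNA barcodes, with UMI collapsing. Cleaved product abundance is the RNA:gDNA barcode ratio per variant, scaled to the median wild-type variant.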

Row | Sequence | cleaved RNA product abundance
1 | CGACATGTCCCGCTTCTTTCATTAATCCGTTAGCAAGTGTTTTGCTATATACATTTACTTTTTAAGAGGAGGAAT | 1.39
2 | CGACATGTCCCGCTTCTTTCATTAATCCGTTAGCAAGTGTTTTGCTATATACATTTAGCTTTTAAGAGGAGGAAT | 1.43
3 | CGACATGTCCCGCTTCTTTCATTAATCCGTTAGCAAGTGTTTTGCTATATCCATTTACCTTTTAAGAGGAGGAAT | 0.273
4 | CGACATGTCCCGCTTCTTTCATTAATCCGTTAGCAAGTGTTTTGCTATATTCATTTACCTTTTAAGAGGAGGAAT | 0.488
5 | CGACATGTCCCGCTTCTTTCATTAATCCGTTAGCAAGTGTTTTGCTATTTACATTTACCTTTTAAGAGGAGGAAT | 0.163
6 | CGACATGTCCCGCTTCTTTCATTAATCCGTTAGCAAGTGTTTTGCTTTATACATTTACCTTTTAAGAGGAGGAAT | 0.474
7 | CGACATGTCCCGCTTCTTTCATTAATCCGTTAGCAAGTGTTTTGTTATATACATTTACCTTTTAAGAGGAGGAAT | 0.21
8 | CGACATGTCCCGCTTCTTTCATTAATCCGTTAGCAAGTGTTTTTCTATATACATTTACCTTTTAAGAGGAGGAAT | 0.603
9 | CGACATGTCCCGCTTCTTTCATTAATCCGTTAGCAAGTTTTTTGCTATATACATTTACCTTTTAAGAGGAGGAAT | 0.974
10 | CGACATGTCCCGCTTCTTTCATTAATCCGTTAGCAATCGTTTTGCTATATACATTTACCTTTTAAGAGGAGGAAT | 1.11
11 | CGACATGTCCCGCTTCTTTCATTAATCCGTTAGCAATGGTTTTGCTATATACATTTACCTTTTAAGAGGAGGAAT | 1.08
12 | CGACATGTCCCGCTTCTTTCATTAATCCGTTAGCAATTATTTTGCTATATACATTTACCTTTTAAGAGGAGGAAT | 1.14
13 | CGACATGTCCCGCTTCTTTCATTAATCCGTTAGCAATTGTGTTGCTATATACATTTACCTTTTAAGAGGAGGAAT | 0.947
14 | CGACATGTCCCGCTTCTTTCATTAATCCGTTAGCAATTGTTTAGCTATATACATTTACCTTTTAAGAGGAGGAAT | 0.468
15 | CGACATGTCCCGCTTCTTTCATTAATCCGTTAGCAATTGTTTTGATATATACATTTACCTTTTAAGAGGAGGAAT | 0.65
16 | CGACATGTCCCGCTTCTTTCATTAATCCGTTAGCAATTGTTTTGCCATATACATTTACCTTTTAAGAGGAGGAAT | 0.156
17 | CGACATGTCCCGCTTCTTTCATTAATCCGTTAGCAATTGTTTTGCTAAATACATTTACCTTTTAAGAGGAGGAAT | 0.342
18 | CGACATGTCCCGCTTCTTTCATTAATCCGTTAGCAATTGTTTTGCTATAGACATTTACCTTTTAAGAGGAGGAAT | 0.345
19 | CGACATGTCCCGCTTCTTTCATTAATCCGTTAGCAATTGTTTTGCTATATAAATTTACCTTTTAAGAGGAGGAAT | 1.01
20 | CGACATGTCCCGCTTCTTTCATTAATCCGTTAGCAATTGTTTTGCTATATACAATTACCTTTTAAGAGGAGGAAT | 1.24
21 | CGACATGTCCCGCTTCTTTCATTAATCCGTTAGCAATTGTTTTGCTATATACATGTACCTTTTAAGAGGAGGAAT | 0.526
22 | CGACATGTCCCGCTTCTTTCATTAATCCGTTAGCAATTGTTTTGCTATATACATTAACCTTTTAAGAGGAGGAAT | 1.62

Row | Sequence | cleaved RNA product abundance
23 | CGACATGTCCCGCTTCTTTCATTAATCCGTTAGCAATTGTTTTGCTATATACATTCACCTTTTAAGAGGAGGAAT | 0.849
24 | CGACATGTCCCGCTTCTTTCATTAATCCGTTAGCAATTGTTTTGCTATATACATTGACTTTTTAAGAGGAGGAAT | 1.33
25 | CGACATGTCCCGCTTCTTTCATTAATCCGTTAGCAATTGTTTTGCTATATACATTTAACTTTTAAGAGGAGGAAT | 1.06
26 | CGACATGTCCCGCTTCTTTCATTAATCCGTTAGCAATTGTTTTGCTATATACATTTACCTTTTAAGAGGAGGAAT | 1.24
27 | CGACATGTCCCGCTTCTTTCATTAATCCGTTAGCAATTGTTTTGCTATATACATTTACGTTTTAAGAGGAGGAAT | 1.1
28 | CGACATGTCCCGCTTCTTTCATTAATCCGTTAGCAATTGTTTTGCTATATACATTTACTTTTTAAGAGGAGGAAT | 1.01
29 | CGACATGTCCCGCTTCTTTCATTAATCCGTTAGCAATTGTTTTGCTATATACATTTGCCTTTTAAGAGGAGGAAT | 0.188
30 | CGACATGTCCCGCTTCTTTCATTAATCCGTTAGCAATTGTTTTGCTATATACCTTTACCTTTTAAGAGGAGGAAT | 0.3
31 | CGACATGTCCCGCTTCTTTCATTAATCCGTTAGCAATTGTTTTGCTATATACTTTTACCTTTTAAGAGGAGGAAT | 0.272
32 | CGACATGTCCCGCTTCTTTCATTAATCCGTTAGCAATTGTTTTGCTATATAGATTTACCTTTTAAGAGGAGGAAT | 1.51
33 | CGACATGTCCCGCTTCTTTCATTAATCCGTTAGCAATTGTTTTGCTATATGCATTTACCTTTTAAGAGGAGGAAT | 0.232
34 | CGACATGTCCCGCTTCTTTCATTAATCCGTTAGCAATTGTTTTGCTTTATACATTTACCTTTTAAGAGGAGGAAT | 0.361
35 | CGACATGTCCCGCTTCTTTCATTAATCCGTTAGCAATTGTTTTGTTATATACATTTACCTTTTAAGAGGAGGAAT | 0.425
36 | CGACATGTCCCGCTTCTTTCATTAATCCGTTAGCAATTTTTTTGCTATATACATTTACCTTTTAAGAGGAGGAAT | 1.16
37 | CGACATGTCCCGCTTCTTTCATTAATCCGTTAGCACCTCTTTTGCTATATACATTTACCTTTTAAGAGGAGGAAT | 0.235
38 | CGACATGTCCCGCTTCTTTCATTAATCCGTTAGCACCTGTTTTGCAATATACATTTACCTTTTAAGAGGAGGAAT | 0.351
39 | CGACATGTCCCGCTTCTTTCATTAATCCGTTAGCACCTGTTTTGCTATATACAATTACCTTTTAAGAGGAGGAAT | 0.867
40 | CGACATGTCCCGCTTCTTTCATTAATCCGTTAGCACCTGTTTTGCTATATACAGTTACCTTTTAAGAGGAGGAAT | 0.393
41 | CGACATGTCCCGCTTCTTTCATTAATCCGTTAGCACCTGTTTTGCTATATACATTTACCTTTTAAGAGGAGGAAT | 0.748
42 | CGACATGTCCCGCTTCTTTCATTAATCCGTTAGCACCTGTTTTGCTATATACATTTACTTTTTAAGAGGAGGAAT | 0.499
43 | CGACATGTCCCGCTTCTTTCATTAATCCGTTAGCACCTGTTTTGCTATATATATTTACCTTTTAAGAGGAGGAAT | 1.44
44 | CGACATGTCCCGCTTCTTTCATTAATCCGTTAGCAGCTGTTTTGCTATATACATTTACCTTTTAAGAGGAGGAAT | 0.754

Row | Sequence | cleaved RNA product abundance
45 | CGACATGTCCCGCTTCTTTCATTAATCCGTTAGCAGCTGTTTTTCTATATACATTTACCTTTTAAGAGGAGGAAT | 0.778
46 | CGACATGTCCCGCTTCTTTCATTAATCCGTTAGCATCTATTTTGCTATATACATTTACCTTTTAAGAGGAGGAAT | 1.53
47 | CGACATGTCCCGCTTCTTTCATTAATCCGTTAGCATCTCTTTTGCTATATACATTTACCTTTTAAGAGGAGGAAT | 0.59
48 | CGACATGTCCCGCTTCTTTCATTAATCCGTTAGCATCTGATTTGCTATATACATTTACCTTTTAAGAGGAGGAAT | 1.34
49 | CGACATGTCCCGCTTCTTTCATTAATCCGTTAGCATCTGTTTTCCTATATACATTTACCTTTTAAGAGGAGGAAT | 0.524
50 | CGACATGTCCCGCTTCTTTCATTAATCCGTTAGCATCTGTTTTGATATATACATTTACCTTTTAAGAGGAGGAAT | 0.491
51 | CGACATGTCCCGCTTCTTTCATTAATCCGTTAGCATCTGTTTTGCTATATACATATACCTTTTAAGAGGAGGAAT | 0.727
52 | CGACATGTCCCGCTTCTTTCATTAATCCGTTAGCATCTGTTTTGCTATATACATTTAACTTTTAAGAGGAGGAAT | 0.999
53 | CGACATGTCCCGCTTCTTTCATTAATCCGTTAGCATCTGTTTTGCTATATACATTTACATTTTAAGAGGAGGAAT | 1.1
54 | CGACATGTCCCGCTTCTTTCATTAATCCGTTAGCATCTGTTTTGCTATATACATTTACCTTTTAAGAGGAGGAAT | 0.769
55 | CGACATGTCCCGCTTCTTTCATTAATCCGTTAGCATCTGTTTTGCTATATACATTTACGTTTTAAGAGGAGGAAT | 0.589
56 | CGACATGTCCCGCTTCTTTCATTAATCCGTTAGCATCTGTTTTGCTATATACCTTTACCTTTTAAGAGGAGGAAT | 0.152
57 | CGACATGTCCCGCTTCTTTCATTAATCCGTTAGCATCTGTTTTGCTATATAGATTTACCTTTTAAGAGGAGGAAT | 0.899
58 | CGACATGTCCCGCTTCTTTCATTAATCCGTTAGCATCTGTTTTGCTATATTCATTTACCTTTTAAGAGGAGGAAT | 0.31
59 | CGACATGTCCCGCTTCTTTCATTAATCCGTTAGCATCTGTTTTTCTATATACATTTACCTTTTAAGAGGAGGAAT | 0.273
60 | CGACATGTCCCGCTTCTTTCATTAATCCGTTAGCATCTTTTTTGCTATATACATTTACCTTTTAAGAGGAGGAAT | 0.995
61 | CGACATGTCCCGCTTCTTTCATTAATCCGTTAGCCAATGTTTTGCTATATACATTTACCTTTTAAGAGGAGGAAT | 0.576
62 | CGACATGTCCCGCTTCTTTCATTAATCCGTTAGCCACTATTTTGCTATATACATTTACCTTTTAAGAGGAGGAAT | 0.358
63 | CGACATGTCCCGCTTCTTTCATTAATCCGTTAGCCACTGTATTGCTATATACATTTACCTTTTAAGAGGAGGAAT | 0.376
64 | CGACATGTCCCGCTTCTTTCATTAATCCGTTAGCCACTGTTTTGCTATAAACATTTACCTTTTAAGAGGAGGAAT | 0.219
65 | CGACATGTCCCGCTTCTTTCATTAATCCGTTAGCCACTGTTTTGCTATATACAGTTACCTTTTAAGAGGAGGAAT | 0.244
66 | CGACATGTCCCGCTTCTTTCATTAATCCGTTAGCCACTGTTTTGCTATATACATTTACCTTTTAAGAGGAGGAAT | 0.478
